The text below walks through data of patent US20260139048A1 (NANJING LEGEND BIOTECH, published 2026).

The target in assay [1] is T1, His-tagged human TIGIT (human, UniProt Q495A1 22-141).
T1 construct: SPR analyte; also called human TIGIT protein; not shown: His tag
T1 sequence: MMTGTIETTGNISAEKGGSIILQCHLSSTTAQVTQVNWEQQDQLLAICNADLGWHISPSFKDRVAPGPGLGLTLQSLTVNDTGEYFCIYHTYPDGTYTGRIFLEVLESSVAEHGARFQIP
Nature of the assay: SPR experiment 3, IgG from HEK293 supernatant. On the technique in general: SPR reads the build-up and loss of mass on a sensor chip optically.

The target in assay [2] is T1, His-tagged human TIGIT. Kind of assay: SPR experiment 3, IgG from HEK293 supernatant captured.
Assay [3] has as its target T2, TIGIT on TIGIT-over expressing NFAT-Luc/Jurkat effector cells (GenScript reporter cell line) (UniProt Q495A1 22-244, limits assumed).
T2 sequence (looked up): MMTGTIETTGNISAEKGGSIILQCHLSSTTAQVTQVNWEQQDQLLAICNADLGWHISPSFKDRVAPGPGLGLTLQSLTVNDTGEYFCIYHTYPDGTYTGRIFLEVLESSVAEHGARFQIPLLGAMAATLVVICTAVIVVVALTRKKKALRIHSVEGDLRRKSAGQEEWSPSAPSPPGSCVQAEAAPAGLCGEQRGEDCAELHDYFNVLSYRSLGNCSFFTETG
Kind of assay: cell-based or functional assay.

The target of assay [4] is T2, TIGIT on TIGIT-over expressing …. Kind of assay: cell-based or functional assay. The source holds these as a separate data set.
Assay [5] concerns the target T3, human TIGIT expressed on CHO-K1 cells (human, UniProt Q495A1 22-244).
T3 construct: whole, on cells; also called human TIGIT-CHO-K1 cells; human TIGIT over-expressing cell line
T3 sequence (looked up): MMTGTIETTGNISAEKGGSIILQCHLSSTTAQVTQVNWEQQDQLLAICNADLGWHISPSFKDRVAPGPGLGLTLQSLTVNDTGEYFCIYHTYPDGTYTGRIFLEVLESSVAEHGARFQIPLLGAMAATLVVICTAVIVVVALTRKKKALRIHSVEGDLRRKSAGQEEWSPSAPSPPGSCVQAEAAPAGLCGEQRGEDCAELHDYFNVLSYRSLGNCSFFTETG
Nature of the assay: flow cytometry on CHO-K1 cells expressing human TIGIT. For orientation: A flow cytometer gives signals particle by particle.

Assay [6] has as its target T3, human TIGIT expressed on CHO-K1 cells. The description is as above. This is another data set of the same source.
Assay [7] has as its target T1, His-tagged human TIGIT. Nature of the assay: SPR experiment 1, IgG from HEK293 supernatant captured.
In assay [8] the target is T1, His-tagged human TIGIT. Nature of the assay: SPR experiment 2, IgG from HEK293 supernatant captured.
Assay [9] deals with T4, cynomolgus TIGIT expressed on CHO-K1 cells (cynomolgus, UniProt A0A7N9I9V4 89-312).
T4 construct: whole, on cells; also called cynomolgus TIGIT over-expressing cell line
T4 sequence (A0A7N9I9V4 entry or part of it): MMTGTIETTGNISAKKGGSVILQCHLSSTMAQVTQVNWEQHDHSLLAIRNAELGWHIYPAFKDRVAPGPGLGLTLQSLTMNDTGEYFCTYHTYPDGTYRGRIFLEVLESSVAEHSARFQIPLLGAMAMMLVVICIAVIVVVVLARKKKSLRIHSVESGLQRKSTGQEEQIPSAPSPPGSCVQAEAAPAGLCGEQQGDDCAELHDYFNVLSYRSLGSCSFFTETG
Kind of assay: flow cytometry on CHO-K1 cells expressing cynomolgus TIGIT.

Assay [10] has as its target T4, cynomolgus TIGIT expressed on CHO-K1 …. The assay is described as above. This is another data set of the same source.
Assay [11] addresses T1, His-tagged human TIGIT. Kind of assay: SPR (Biacore T200), antibody captured, His-tagged TIGIT analyte.
Assay [12] concerns the target T5, His-tagged cynomolgus TIGIT (cynomolgus, UniProt A0A7N9I9V4 89-209).
T5 construct: SPR analyte; also called cynomolgus TIGIT protein; not shown: His tag
The description is as above.

For assay [13], the target named is T1, His-tagged human TIGIT. Described as above. This is another data set of the same source.
For assay [14], the target named is T5, His-tagged cynomolgus TIGIT. Described as above. This is another data set of the same source.
In assay [15] the target is T3, human TIGIT expressed on CHO-K1 cells. Kind of assay: flow cytometry competition: biotinylated CD155-Fc on human TIGIT-CHO-K1 cells.
Assay [16] shares this target. The assay is described as above. The source holds these as a separate data set.
For assay [17], the target named is T1, His-tagged human TIGIT. Nature of the assay: SPR, IgG from HEK293 supernatant; against 19VH + 19VL.

Where two headings read alike, the source gives them in different places.

T5 sequence (A0A7N9I9V4 entry or part of it): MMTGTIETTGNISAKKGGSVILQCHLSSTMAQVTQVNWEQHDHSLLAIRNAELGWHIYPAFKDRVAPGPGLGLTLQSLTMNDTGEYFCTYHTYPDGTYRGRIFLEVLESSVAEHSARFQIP

B1: reshaped TIGIT-3 antibody 3VH3 + 3VL1 (antibody, V domains shown)
VH: EVQLVESGGGLVQPGGSLRLSCAASGFTFSSYGMSWVRQAPGKGLELVATIKSDGGSTNLPDSVKGRFTISRDNSKNTLYLQMNSLRAEDTAVYYCVRGYFDYWGQGTTVTVSS
VL: DIQMTQSPSSLSASVGDRVTITCKASQDVKTAVAWYQQKPGKVPKLLIYWSSTRHTGVPSRFSGSGSGTDFTLTISSLQPEDVATYYCQQYYSTPYTFGGGTKVEIK
notes: Full-length IgG, tested as HEK293 supernatant
As a reminder, the Kd is the free concentration of one partner at which half of the binding sites on the other are occupied at equilibrium, for simple one-to-one binding. A low value points to higher affinity. What is called koff is the rate constant with which the complex falls apart. A high value points to a short-lived complex. Broadly, the kon is a measure of how fast the partners come together. A lower kon goes with slow association. As to B1, the fold affinity decrease in the assay with His-tagged human TIGIT [1] is approximately 100 fold. Further, in the assay with His-tagged human TIGIT [2], the Kd is 36 nM, the off-rate (koff) was determined as 0.0076 s⁻¹ and the kon stood at 210000 M⁻¹ s⁻¹.

B2: TIGIT-19 chimeric antibody (antibody, human IgG1, kappa, V domains shown)
VH: QVQLQQPGPELVKPGTSVMLSCKASGYAFSRYSMYWVKQSHGKSLEWIAFIDPYNGGSTYNQRFRGKATLTVDKSSSTAYMHLNTLTSDDSAVYYCARGGDYGWYLGVWGAGTTVTVSS
VL: DIQMTQSPASLSASVGETVTITCRPSENIYTYLSWYQQKRGKSPQLLVYNAKTLPENVPSRFSGSGSGTQFSLKIDSLQPEDFGNYYCQHHYGNPLTFGAGTKLELKR
notes: also called 19VH + 19VL
In general, EC50 refers to the concentration needed to bring the measured effect to its halfway point. What is called IC50 is the midpoint of a concentration-inhibition curve. A high value points to weaker potency. Consider B2, for which the “Bottom (RLU)” value in assay [3] stood at 11100 RLU; in [4], 47600 RLU. Further, the “EC50” value worked out at 3.28 nM in [3]; 2.75 nM in assay [4]; 0.41 nM in assay [5]; 0.311 nM in assay [6]; 1.05 nM in assay [9]; 0.524 nM in assay [10]. Also, the figures for the “Top (RLU)” value in assay [3] and in assay [4] were 41600 RLU and 130000 RLU, respectively. Besides, the Kd with His-tagged human TIGIT [7] was found to be 0.071 nM; with His-tagged human TIGIT [8], 0.12 nM; with His-tagged human TIGIT [11] it was 0.071 nM; in assay [12], 0.091 nM; with His-tagged human TIGIT [13], 0.04 nM; in assay [14] it was 0.032 nM. For the same molecule, the off-rate constant (koff) with His-tagged human TIGIT [7] is 9.7e-05 s⁻¹; with His-tagged human TIGIT [8], 0.00015 s⁻¹; with His-tagged human TIGIT [11], 0.0001 s⁻¹; in [12] it was 6.6e-05 s⁻¹; in the assay with His-tagged human TIGIT [13], 5.9e-05 s⁻¹; in assay [14], 3.2e-05 s⁻¹. Also, the on-rate (kon) was 1.4e+06 M⁻¹ s⁻¹ with His-tagged human TIGIT [7]; 1.2e+06 M⁻¹ s⁻¹ with His-tagged human TIGIT [8]; 1.5e+06 M⁻¹ s⁻¹ with His-tagged human TIGIT [11]; 730000 M⁻¹ s⁻¹ in assay [12]; 1.5e+06 M⁻¹ s⁻¹ with His-tagged human TIGIT [13]; 1e+06 M⁻¹ s⁻¹ in assay [14]. Besides, the IC50 in assay [15] came out at 0.4 nM; in [16], 0.26 nM.

B3: humanized TIGIT-19 antibody 19VH4 + 19VL1 (antibody, V domains shown)
VH: QVQLVQSGAEVKKPGASVKVSCKASGYAFSRYSMYWVRQAPGQGLEWIAFIDPYNGGSTYNQRFRGKATLTVDTSISTAYMELSRLRSDDTAVYYCARGGDYGWYLGVWGQGTLVTVSS
VL: DIQMTQSPSSLSASVGDRVTITCRPSENIYTYLSWYQQKPGKAPKLLIYNAKTLPEGVPSRFSGSGSGTDFTLTISSLQPEDFATYYCQHHYGNPLTFGQGTKVEIK
notes: as for B1
Turning to B3, the “fold improvement of binding affinity” value with His-tagged human TIGIT [17] is approximately 4 fold. In the assay with His-tagged human TIGIT [7], this molecule registered a Kd of 0.0196 nM, a koff of 2.51e-05 s⁻¹ and an association rate constant (kon) of 1.28e+06 M⁻¹ s⁻¹. In the assay with His-tagged human TIGIT [8], this molecule registered a dissociation constant Kd of 0.028 nM, an off-rate (koff) of 3.3e-05 s⁻¹ and an on-rate constant (kon) of 1.2e+06 M⁻¹ s⁻¹.
